From patent US20230167200A1 (BIOTHEUS, published 2023) come the findings set out here.

Experiment [1] has as its target T1, human PD-L2 expressed on CHO cells (CHO-hPD-L2 cells) (human, UniProt Q9BQ51 20-273).
T1 construct: whole, on cells; also called CHO-KI-PD-L1/PD-L2
T1 sequence (looked up): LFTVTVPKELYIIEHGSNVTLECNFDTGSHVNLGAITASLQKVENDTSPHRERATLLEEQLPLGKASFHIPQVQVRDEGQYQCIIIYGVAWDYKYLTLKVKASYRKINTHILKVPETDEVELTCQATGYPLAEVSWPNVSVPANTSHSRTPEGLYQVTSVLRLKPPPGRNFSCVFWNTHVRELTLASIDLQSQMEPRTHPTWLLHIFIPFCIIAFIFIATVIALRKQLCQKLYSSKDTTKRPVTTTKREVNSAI
Briefly: flow cytometry on CHO-hPD-L2 cells. In general terms: A flow cytometer gives signals particle by particle.

The target of experiment [2] is T2, human PD-L1 expressed on CHO cells (CHO-hPD-L1 cells) (human, UniProt Q9NZQ7 19-290).
T2 construct: whole, on cells; also called CHO-KI-PD-L1/PD-L2
Briefly: flow cytometry on CHO-hPD-L1 cells.

Experiment [3] concerns the target T3, anti-PD-1/TIGIT/human serum albumin trispecific antibody Bi-70-71. Briefly: flow cytometry on CHO-hTIGIT cells.
The target in experiment [4] is T4, anti-PD-1/TIGIT/human serum albumin trispecific antibody Bi-72-73. Briefly: flow cytometry on CHO-hTIGIT cells.
Experiment [5] deals with T3, anti-PD-1/TIGIT/human serum albumin …. The experiment in a line: BLI (Octet), antibody held on PD-1 sensor, human TIGIT 100 nM in solution. Background: Biolayer interferometry detects binding as a change in optical thickness at a sensor tip.
Experiment [6] has as its target T4, anti-PD-1/TIGIT/human serum albumin …. The experiment is described as above.

T2 sequence (Q9NZQ7 19-290): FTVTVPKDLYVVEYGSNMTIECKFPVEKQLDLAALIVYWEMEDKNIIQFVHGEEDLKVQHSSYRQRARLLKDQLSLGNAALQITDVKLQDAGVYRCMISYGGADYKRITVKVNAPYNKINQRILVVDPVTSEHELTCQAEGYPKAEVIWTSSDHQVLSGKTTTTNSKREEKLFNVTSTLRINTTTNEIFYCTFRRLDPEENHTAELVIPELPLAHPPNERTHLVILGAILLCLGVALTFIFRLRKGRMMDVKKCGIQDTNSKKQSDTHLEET

B1: anti-PD-L1/PD-L2 bispecific antibody Fc fusion protein Bi-203-204 (bispecific antibody, human IgG1, kappa, L234A L235A, V domains shown)
V domain 1: QVQLVESGGGLVKPGGSLRLSCAASGHTFIIYAIGWFRQAPGKGLEFVATINWSGSMTNYADSVKGRFTISRDNAKNTVYLQMNSLKPDDTAVYYCAAYVGATISTAHSRYDYWGQGTLVTVSS
V domain 2: EVQLVESGGGLVQPGGSLRLSCAASGRTFSSMTIGWFRQAPGKGLEFVSGIGWTSGLTVYADSVKGRFTISRDNAKNSMYLQMNSLRAEDTAVYYCAADSMNRGQFDYWGQGTLVTVSS
On to B1, for which the binding result in experiment [1] and in experiment [2] was “binds” in each case.

B2: human TIGIT expressed on CHO cells (CHO-hTIGIT cells) (receptor, UniProt Q495A1 22-244, looked up)
chain: MMTGTIETTGNISAEKGGSIILQCHLSSTTAQVTQVNWEQQDQLLAICNADLGWHISPSFKDRVAPGPGLGLTLQSLTVNDTGEYFCIYHTYPDGTYTGRIFLEVLESSVAEHGARFQIPLLGAMAATLVVICTAVIVVVALTRKKKALRIHSVEGDLRRKSAGQEEWSPSAPSPPGSCVQAEAAPAGLCGEQRGEDCAELHDYFNVLSYRSLGNCSFFTETG
notes: whole, on cells; also called CHO-hTIGIIT
In the case of B2, the binding result in experiment [3] and in experiment [4] was “binds” throughout.

B3: human TIGIT (ACROBiosystems) (receptor, UniProt Q495A1 22-141, looked up)
chain: MMTGTIETTGNISAEKGGSIILQCHLSSTTAQVTQVNWEQQDQLLAICNADLGWHISPSFKDRVAPGPGLGLTLQSLTVNDTGEYFCIYHTYPDGTYTGRIFLEVLESSVAEHGARFQIP
notes: Bought protein
In the case of B3, the binding result in experiment [5] and in experiment [6] was “binds” each time.
